Assay results: publication doi:10.1101/525485 (bioRxiv, 2019)
Residue numbers refer to the chain shown, from its start. Names may count otherwise.

B1: Cdm1, fourth subunit of S. pombe DNA polymerase delta, purified (natural protein)
chain: MKKRTTQAKKSGQNTNIRDVFPHVVRSNSSQSHIGKKVSSEQSPTPDVTITTKTLDERIKEDDELSKEVEEAWNQIMAERISEPIHCENITKVEFILHHFDTTARYGPYLGMTRMQRWKRAKNFNLNPPETVGKILMLEEADEENRKRESLFYDLQTIPG
B2: p12 subunit of human DNA polymerase delta, purified, GST tag cleaved off (natural protein)
chain: MGRKRLITDSYPVVKRREGPAGHSKGELAPELGEEPQPRDEEEAELELLRQFDLAWQYGPCTGITRLQRWCRAKQMGLEPPPEVWQVLKTHPGDPRFQCSLWHLYPL
B3: p12 L104A, Y105A mutant, purified (natural protein)
chain: B2 chain with L104A, Y105A

Columns and labels:
[1] = biological target: the molecule itself; assay: native gel or EMSA
[2] = biological target: human PCNA, purified (human, UniProt P12004 1-261); assay: ITC
[3] = biological target: the molecule itself; assay: cross-linking
[4] = biological target: the molecule itself; assay: ITC

Sequence of human PCNA, purified (P12004 whole entry): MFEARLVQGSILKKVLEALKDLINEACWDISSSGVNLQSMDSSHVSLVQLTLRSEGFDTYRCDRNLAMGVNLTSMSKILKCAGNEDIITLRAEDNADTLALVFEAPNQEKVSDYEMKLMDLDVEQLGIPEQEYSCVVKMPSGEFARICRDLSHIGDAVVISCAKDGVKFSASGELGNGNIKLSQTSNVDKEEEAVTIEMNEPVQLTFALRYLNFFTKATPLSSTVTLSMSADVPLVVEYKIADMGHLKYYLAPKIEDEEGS

Binder	binding result [1]	Kd [2] [µM]	stoichiometry N [3]	Kd [4] [µM]	dH [4] [kcal/mol]	stoichiometry N [4]
B1	binds	–	–	–	–	–
B2	–	10	2	~0.146	~-1.82	~0.6
B3	–	–	2	–	–	–
